Target: GST-His6x-CLIC5A (human, UniProt Q9NZA1-2 1-251, fluorescent label from the Monolith His-Tag Labeling Kit RED-tris-nitriloacetic acid)
Test: MST; 100 nM fluorescently labeled (RED-tris-NTA) GST-His6x-CLIC5A or GST-His6x, unlabeled ezrin_(482-586) from 412 μM to 12.6 nM in the labeling buffer; Monolith NT.115, ambient temperature, 40% MST power, 30% LED power
Settings: both partners purified

Sequence of GST-His6x-CLIC5A (Q9NZA1 other isoform, or with tags, fused parts or gaps): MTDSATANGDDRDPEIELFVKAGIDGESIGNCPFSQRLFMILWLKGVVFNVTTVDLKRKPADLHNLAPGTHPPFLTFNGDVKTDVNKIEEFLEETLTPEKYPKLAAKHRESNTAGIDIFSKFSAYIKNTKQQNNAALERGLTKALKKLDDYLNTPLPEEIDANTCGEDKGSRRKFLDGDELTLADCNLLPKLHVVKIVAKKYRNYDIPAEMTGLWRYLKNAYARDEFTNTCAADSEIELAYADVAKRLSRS

B1: ezrin_(482-586) (H549N/T567E) (domain or fragment, human, UniProt P15311 482-586, looked up)
chain: SYHVQESLQDEGAEPTGYSAELSSEGIRDDRNEEKRITEAEKNERVQRQLLTLSSELSQARDENKRTNNDIIHNENMRQGRDKYKELRQIRQGNTKQRIDEFEAL
notes: ezrin, human; Expression plasmid created by ATUM; not shown: PagP, N-terminal, cleaved
- Kd: 29 µM
